The nature of this series: label from the status in PepcDB records.

The source of these data is a protein production outcome set (Wang et al. 2014).

On to “AADQVLELVRPFLEELRNISQETAVLGKRQDGQVIYLDVALSHQPIRYHVQVGESRAAHTNSIGKAIFPMLDEKEQKALLAKANWRALTSRTIATREAFLRDMAQTKARGWSSNVGESVEDLAAVALPFQLASEWYAVSIVGPYERMERNWDAHVETLLQTGARLRQAIAVHEGQ”, for which the protein production entry is listed as “failed”.
In the case of “AALVRQHLDALPAASVPDLPAMARLLCTSVRTLKRRLQEEGTCYRQVLAGHRGARALELLGNPRLSLSQVAERLGFSDLSSFSQSFKRWFGVAPSVYRQERCG”, the protein production result is “failed”.
Regarding “AASEAEYGKVSKAWTLHADGSQEYRSSMELTLFTHTAMNSTYGESFIVYNPDFQTLKIHSSYTRQKDGTIVKTPDNAFVEVLPRFAADAPAYNQLKEMVVVHTGLELGATIYLDYSIITKPGYYPALDINERLQETSPVKECKVSISVPEGTPLACGLYGSPVKAVEESHDGIKEVHWTLRNIPASSREAFQPKNREASPHLVASTYPSGKAALATLDKRLKESQGYESKTFAQFLTDKSGNEQEKVNIIRDHILNNLSTCPIPMAMTGYTVRDIDTVLRSAYGTPLEIAQLLNVMLNAAGIPSEVLAVYPGHLDTDACGLAAIQTLAVKATVDGKDQYLSASPLTNRGGLDKVVSLSGTSIEIETTPIQIKESRSVAISADQAKDGFAICVLPAISAGIDSWGMSALNSKRSNLFELPSLIREEVTYTVTPAEGMKLQTSTQEQVISKPFGKVTRTITPRGNTIEVVRTIELNKQQFTPAEYSDVRSLIHEWTNPDNRVLLFSL”, the protein production result was “not failed”.
With “AEIFTTLSCEPDIPNPPRIANRTKNSLTLQWKAPSDNGSKIQNFVLEWDEGKGNGEFCQCYMGSQKQFKITKLSPAMGCKFRLSARNDYGTSGFSEEVLYYTSGC”, the protein production entry is “not failed”.
The entry for “AHAPQRISGLALFDPAGVEAPETSDLQHLLEQGKNPFLVRSRADFQHFYSLTMAAPPWVPEAVLAAIAERYQARRGQLARIFAELQASPPMEPELAKIQAPTLLLWGREDRLLHPSSAQVWAKGLPQAQVQLWEGIGHMPMVERPVRSARLYQQFLER” is “failed”; for “AIAAASLGEFEWCVATNTFRISPRLAKLSGIPEGELDSQGGNALYAYIHPDDREAVRANIDRQLAQSGRFTAEYRRTPLEHGGETWNSVAGVMLMDADGQPSRLIGVVQDITPRKL” it is “failed”.
The entry for “AIADSKSHGWLIGANGTILETHDGGEHWEPRTFDFLRMDEEINYRFESISCYGNEGWIVGKPPILLHTQNGGKDWERIPLSSKLPGEPVLITALGPNRAELATTAGAIYTTDNGGKNWKALVKETIDATLNRTTSSGVTGASYYTGTVISITRDCNGYYLAISSRGNFYVTWHPGQEYWTPHPRDSSRRIQSMGFVQNDIHKGLWMANNGGFLGFSPPNPSLDTVSSIPFQRVDIRTGGYGILDVAFHQQKRNEVWASVGSGILYRSFDGGKHWEKDPWLDHLGSVLYRIKFVENSGFILGAKGTLLRYNG” is “not failed”; for “AIAKLPISTISPIHYMKSVVSSRETRNESNKSRRTFASTEWNKIIRETLYLETVYIPVDATSHSPDIIFKLQSPVEPKVLTVGVACKGRWKSEGIGWSDIIDEAKKFLDPVYDQVLSSAMDYHHCMLIIVSTKLSLNVSNELGNQSRCYSSGMFIGGDSFKVPDNCELVILCERDVQMLIDKEILNGLERAFCVSHNPTFWDFGLDLLDRIRNSFLSWQ” it is “failed”.
To “AIANDDRATAFNALKNKTVCVQGDGNSRQFYHALVEILSNHSSAIPVNKNGNDFCNAPFAQCPQDTYYFDLVDKSDNLSVKLYWRWAPEFSDIECPMKVPSGFTPGSNYSFPSGPDTLSCDINIMDAGQWELFEKDANVTTAGYSQGVSNLSKCFSSDKSAKYFWIAAYALTPEQLQIHLPYNNTDVERINEVATQGLNSTACVLNGYDVTVNAFNDTKEATTDGIHYLGWINEQVVHLFFNAVTNSSAPTVPSSNVSVTSPNVQLGQVPNLNPSTTNSFLPVQTIVTVPSSSATSASSGLNFGGSSQGGGSGIPQL” belongs “failed”; to “AIASQFDPDKFKQEQKARWNQGARSTWTLWKQTQVEDTPAKFFLGLVPIRPGVKVLDLACGSGETSLQVAQLVSSHLPSDSKDAKIVCVDISEEMLRVLSQRAQELGLSSVVETCCEDAENINFGTHYFDMVMSQFGVMFLPHLPEDLANIRKMMKPGSLFCCVVWGEEKDCHIFYAARSVVSPPPPPPGTPVSYGTKEKVMEALRKAEFSDVKAVEFQVVHETKDAEEYITLMSGVNQWLEKSLGEKGSGPWQKLVEYCNNSYRTSRGTLQFPNVCVGITAIA”, “failed”.
